Data on three molecules can be found in patent publication US10155934B2, “Cytochrome P450 polypeptide with increased enzyme activity” (SANOFI, priority 2014, dated 2018).

Series [1] has as its system cholesterol. Kind of series: In vitro conversion assay of cholesterol by purified CYP11A1 variants with Adx and AdR. Format: biochemical. As to conditions: 20 μM cholesterol, saturating Adx and AdR; for activity, SA4 compared with SA6 (in vitro conversion of cholesterol): 1 μM enzyme. The protocol: For in vitro enzyme assays, 150 mM of HEPES buffer, adjusted to pH 7.4, containing 0.05% Tween-20 and 1 mM MgCl2, were applied as reaction buffer. 1 unit of glucose-6-phosphate dehydrogenase, with 5 mM glucose-6-phosphate as substrate, served as a NADPH-regenerating system.
For WT P450scc (noted “SA4”, SEQ ID NO: 4) and P450scc-I1A-K193E (noted “SA6”, SEQ ID NO: 6) the concentrations of CYP11A1, Adx and AdR were of 1 μM, 20 μM and 0.5 μM, and for P450scc-R225T-N289D (noted “SA1”, SEQ ID NO: 1) the concentrations of CYP11A1, Adx and AdR were of 0.25 μM, 5 μM and 0.125 μM, respectively.
The samples were pre-warmed to 37° C. and the reaction was started by addition of NADPH to a final concentration of 100 μM. The mixtures were incubated at 37° C. with agitation for 30 s. The reaction was stopped by boiling the samples in water for 30 s.
To allow photometric detection at 240 nm, the steroids were converted into their 3-keto-Δ4 derivatives using a cholesterol oxidase from Nocardia spec.
20 μl of a cholesterol oxidase solution (5 mg cholesterol oxidase and 5 mg Na-cholate dissolved in 5 ml of 50 mM HEPES buffer pH 7, containing 0.05% Tween-20) were added to the samples. After incubation at 37° C. for 1 h, 11-deoxycorticosterone (DOC) was added to the reaction mixtures as an internal standard, followed by a 2-times extraction with equal volumes of ethylacetate. After evaporation, the extracts were dissolved in acetonitrile/water.
After acute evaluation of the concentration of each P450scc preparation, SA1, SA4 and SA6 were used in the following in vitro assays. Each of these isoforms was reconstituted at a concentration of 1 μM in the presence of cholesterol as a substrate (20 μM) in saturating amounts of Adx and AdR.

In series [2] the test system is cholesterol. Kind of series: In vivo conversion of cholesterol into pregnenolone by recombinant Bacillus megaterium expressing the P450scc polypeptide. Format: cell-based. As to conditions: 300 μM cholesterol, Bacillus megaterium MS941, assessed after 24 h and 48 h (FIGS. 3 and 4).

B1: SA1: CYP11A1 comprising a threonine at position 225 and an aspartic acid at position 289 (protein)
chain: ISTKTPRPYSEIPSPGDNGWLNLYHFWREKGSQRIHFRHIENFQKYGPIYREKLGNLESVYIIHPEDVAHLFKFEGSYPERYDIPPWLAYHRYYQKPIGVLFKKSGTWKKDRVVLNTEVMAPEAIKNFIPLLNPVSQDFVSLLHKRIKQQGSGKFVGDIKEDLFHFAFESITNVMFGERLGMLEETVNPEAQKFIDAVYKMFHTSVPLLNVPPELYRLFRTKTWTDHVAAWDTIFNKAEKYTEIFYQDLRRKTEFRNYPGILYCLLKSEKMLLEDVKANITEMLAGGVDTTSMTLQWHLYEMARSLNVQEMLREEVLNARRQAEGDISKMLQMVPLLKASIKETLRLHPISVTLQRYPESDLVLQDYLIPAKTLVQVAIYAMGRDPAFFSSPDKFDPTRWLSKDKDLIHFRNLGFGWGVRQCVGRRIAELEMTLFLIHILENFKVEMQHIGDVDTIFNLILTPDKPIFLVFRPFNQDPPQA
modifications: Mutated amino acid sequence of CYP11A1
Regarding B1, the “activity compared to SA4 and SA6 (in vitro conversion of cholesterol)” value in series [1] (37° C., 30 s, HPLC (FIG. 1)) was 2-3 fold. Moreover, the “in vivo cholesterol conversion activity compared to SA6” value in series [2] is 2 fold.

B2: SA4: WT Bos taurus CYP11A1, mature form, wild-type control (protein, listed as Bos taurus)
chain: ISTKTPRPYSEIPSPGDNGWLNLYHFWREKGSQRIHFRHIENFQKYGPIYREKLGNLESVYIIHPEDVAHLFKFEGSYPERYDIPPWLAYHRYYQKPIGVLFKKSGTWKKDRVVLNTEVMAPEAIKNFIPLLNPVSQDFVSLLHKRIKQQGSGKFVGDIKEDLFHFAFESITNVMFGERLGMLEETVNPEAQKFIDAVYKMFHTSVPLLNVPPELYRLFRTKTWRDHVAAWDTIFNKAEKYTEIFYQDLRRKTEFRNYPGILYCLLKSEKMLLEDVKANITEMLAGGVNTTSMTLQWHLYEMARSLNVQEMLREEVLNARRQAEGDISKMLQMVPLLKASIKETLRLHPISVTLQRYPESDLVLQDYLIPAKTLVQVAIYAMGRDPAFFSSPDKFDPTRWLSKDKDLIHFRNLGFGWGVRQCVGRRIAELEMTLFLIHILENFKVEMQHIGDVDTIFNLILTPDKPIFLVFRPFNQDPPQA
As for B2, the “activity, SA4 compared with SA6 (in vitro conversion of cholesterol)” value in series [1] is recorded as “identical activity”.

B3: SA6: P450scc-I1A-K193E polypeptide, control (protein)
chain: ASTKTPRPYSEIPSPGDNGWLNLYHFWREKGSQRIHFRHIENFQKYGPIYREKLGNLESVYIIHPEDVAHLFKFEGSYPERYDIPPWLAYHRYYQKPIGVLFKKSGTWKKDRVVLNTEVMAPEAIKNFIPLLNPVSQDFVSLLHKRIKQQGSGEFVGDIKEDLFHFAFESITNVMFGERLGMLEETVNPEAQKFIDAVYKMFHTSVPLLNVPPELYRLFRTKTWRDHVAAWDTIFNKAEKYTEIFYQDLRRKTEFRNYPGILYCLLKSEKMLLEDVKANITEMLAGGVNTTSMTLQWHLYEMARSLNVQEMLREEVLNARRQAEGDISKMLQMVPLLKASIKETLRLHPISVTLQRYPESDLVLQDYLIPAKTLVQVAIYAMGRDPAFFSSPDKFDPTRWLSKDKDLIHFRNLGFGWGVRQCVGRRIAELEMTLFLIHILENFKVEMQHIGDVDTIFNLILTPDKPIFLVFRPFNQDPPQA
modifications: Mutated amino acid sequence of CYP11A1
notes: P450scc-I1A-K193E polypeptide, control
With B3, the “activity, SA4 compared with SA6 (in vitro conversion of cholesterol)” value in series [1] is reported as “identical activity”.
